Test results from article PMC6551489, “Structural insights into interactions between viral suppressor of RNA silencing protein p19 mutants and small RNAs” (FEBS Open Bio, 2019).

T1: CIRV p19-WT (Carnation Italian ringspot virus, UniProt Q66104 1-172)
T1 sequence: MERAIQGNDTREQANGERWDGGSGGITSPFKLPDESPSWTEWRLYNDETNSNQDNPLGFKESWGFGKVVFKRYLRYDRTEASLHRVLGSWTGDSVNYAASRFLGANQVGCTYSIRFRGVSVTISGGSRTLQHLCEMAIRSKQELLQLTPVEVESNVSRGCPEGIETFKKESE


Experiments:
[1] = target: the molecule itself; experiment: crystal structure; p19 homodimer in complex with GL2 siRNA duplex; hanging drop vapour diffusion at 4 °C, 3-12% PEG 1500, 100 mM sodium acetate pH 4.6, 10-40 mM MgCl2; space group P1
[2] = target: T1, CIRV p19-WT; experiment: X-ray crystallography; 2.2 A; Protein in 20 mM Tris pH 7.4, 150 mM NaCl, 1 mM TCEP before crystallization; crystallization conditions not in the material; settings: protein: recombinant; tags: N-terminal His6 removed with TEV protease; chain copies: 2; 19 bp, 3' overhang 2 nt on both strands

Binder | binding result [1] | binding result [2]
wild-type p19 protein from the Carnation Italian ringspot virus (natural protein, p19 viral suppressor of RNA silencing, Carnation Italian ringspot virus (CIRV), full-length construct, codon-optimized for E. coli, in pHis-parallel 2; Crystallised in complex with GL2 siRNA duplex; also called p19-WT; CIRV p19; source: E. coli BL21 DE3, purified (Nickel resin, TEV cleavage, size-exclusion chromatography); not shown: His6, N-terminal, cleaved) MERAIQGNDTREQANGERWDGGSGGITSPFKLPDESPSWTEWRLYNDETNSNQDNPLGFKESWGFGKVVFKRYLRYDRTEASLHRVLGSWTGDSVNYAASRFLGANQVGCTYSIRFRGVSVTISGGSRTLQHLCEMAIRSKQELLQLTPVEVESNVSRGCPEGIETFKKESE | binds | 
p19-T111H mutant of the Carnation Italian ringspot virus p19 protein (natural protein, UniProt Q66104 1-172, looked up, Crystallised in complex with GL2 siRNA duplex; also called H111; source: E. coli BL21 DE3, purified (Nickel resin, TEV cleavage, size-exclusion chromatography); not shown: His6, N-terminal, cleaved) MERAIQGNDTREQANGERWDGGSGGITSPFKLPDESPSWTEWRLYNDETNSNQDNPLGFKESWGFGKVVFKRYLRYDRTEASLHRVLGSWTGDSVNYAASRFLGANQVGCHYSIRFRGVSVTISGGSRTLQHLCEMAIRSKQELLQLTPVEVESNVSRGCPEGIETFKKESE | binds | 
p19-T111S mutant of the Carnation Italian ringspot virus p19 protein (natural protein, UniProt Q66104 1-172, looked up, Crystallised in complex with GL2 siRNA duplex; also called S111; source: E. coli BL21 DE3, purified (Nickel resin, TEV cleavage, size-exclusion chromatography); not shown: His6, N-terminal, cleaved) MERAIQGNDTREQANGERWDGGSGGITSPFKLPDESPSWTEWRLYNDETNSNQDNPLGFKESWGFGKVVFKRYLRYDRTEASLHRVLGSWTGDSVNYAASRFLGANQVGCSYSIRFRGVSVTISGGSRTLQHLCEMAIRSKQELLQLTPVEVESNVSRGCPEGIETFKKESE | binds | 
GL2 siRNA duplex (dsRNA, 5' phosphorylated strands; text says deoxythymidine 2-nt overhangs, but printed as UU) RNA 1: CGUACGCGGAAUACUUCGAUU RNA 2: UCGAAGUAUUCCGCGUACGUU |  | binds
